The values below come from the nanobody polyreactivity screen of Harvey et al. (2022).

The nature of this data set: yeast display, Sf9 membrane polyspecificity reagent, FACS + sequencing; frameworks hold sequencing errors. The method, boiled down: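 In a synthetic yeast display library (Saccharomyces cerevisiae BJ5465), nanobody expression was induced with galactose for 36–48 hours. FACS gates were set low and high (top ~1%) using anti-HA fluorescence for expression and streptavidin fluorescence for binding of the Sf9 membrane reagent. Each polyreactivity label is drawn from the gate of origin.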
With “QVQLVESGGGLVQAGGSLRLSCAASGNIFVDNAMGWYRQAPGKERELVAAITFSGDDTYYADSVKGRFTISRDNAKNTVYLQMNSLKPEDTAVYYCNAVPTLYWWYDYWGQGTQVTVSS”, the “polyreactivity (PSR sort gate)” value was “low polyreactivity”.

Turning to “QVQLVESGGGLVQAGGSLRLSCAASGITLTRYAMGWYRQAPGKDRELVAAISTGGGSTYYADSVKGRFTISRDNAKNTVYLQMNSLKPEDTAVYYCAARIRFARGYPITRTYDYWGQGTQVTVSS”, the “polyreactivity (PSR sort gate)” value is given as “high polyreactivity”.

With “QVQLVDSGGGLVQAGGSLRLSCAASGITFRGYAMGWYRQSPGKERELVATITSSGGSTYYADSVKGRFTISRDNAKNTVYLQMNSLKPEDTAVYYCAAVPYTRYSSSRGYWGQGTQVTVSS”, the “polyreactivity (PSR sort gate)” value is “high polyreactivity”.

On to “QVQLVESGGGLVQAGVSLRLSCAASGFTFAYYAMGWYRQAPGKERELVAAITSGGRTNYADSVKGRFTISRDNAKNTGYLQMISLKAEDTAVSYCAKYRRGGSRHYSVFNHDYWGLGTQVTVSS”, for which the “polyreactivity (PSR sort gate)” value is on record as “high polyreactivity”.

As to “QVQLVESGRGLGQAGGSLRLSCAASVSTFDKYDKGRSRQAPGKEREFVAAISSTGASTYYADSVKGRFTISRDNAKNTVYLQMNSLKPEDTAVYYCAADVPVGYGDDYWGQGTQVTESS”, the “polyreactivity (PSR sort gate)” value is “low polyreactivity”.

Regarding “QGQLVESGGGLVQAGGSLRLTCAASGFIFDNYAMGWYRHAPGKERELVADISWGGGSTYYADSVKGRFTISRDNAKNTVYLQMNSLTPEDTAVYYCDAQYSYRMDYWGQGTQVTVSS”, the “polyreactivity (PSR sort gate)” value is listed as “low polyreactivity”.

“QVHLVESGGGLVQAGGSLRLSCAASGRISKLYAMGWYRQAHGKERDLVAAISSGGSTYYADSVKGRFTISRDNAKNTVYLQMNSLKPEDTAVYYCAVTQVMQYGIPYSYTRDYWGQGTQVTVSS”: the “polyreactivity (PSR sort gate)” value is reported as “low polyreactivity”.

Turning to “QVQLVESGGGLVQAGGSLRLSCAASGSTFGTYAMGWYRQAPGKERELVAAISNSGGSTYYADSVKGRFTISRDNAKNTVYLQMNSLKPEDTAVYYCNTDGLVRNGPFYSWGQGTQVTVSS”, the “polyreactivity (PSR sort gate)” value is “low polyreactivity”.

Consider “QDQLVESGGGLVQAGGSLRLSCASSGITIATNAMGWSRQAPGKERELVAAISWSGGSTYYADSVKGRFTISRDNAKNTVFLQMNSLKPEDTAVYYCATGYSVWYDYWGQGTQVTVSS”, for which the “polyreactivity (PSR sort gate)” value is reported as “low polyreactivity”.

With “QVQLVESGGGLVQAGGSLRLSCAASGGTIDRYAMGWYRQAPGKERELVAAITKSGDRTYYADSVKGRFTISRDNAKNTVYLQMNSLKPEDTAVYYCAAAYSGLRRQNGFNYWGQGTQVTVSS”, the “polyreactivity (PSR sort gate)” value is “high polyreactivity”.

“QVQLVDSGGGLVQAGGSLRLSCAASGSIIKRKAMGWYRQAPGKERELVASISSGGSTHYADSVKGRFTISRDNAKNTVYLQMNSLKPEDTAVYYCAATSIRWSVGSFRRDYWGQGTQVTVSS”: the “polyreactivity (PSR sort gate)” value is on record as “low polyreactivity”.

As to “QVQLQESGGGMVQAGGSLRLSCAASGYISWADYMGWYRQAPGKERELVAGIGYGSTTYYADSVKGRFTISRDNAKNTAYLQMNSLKPEDTAVYYCAVGWYRVTAYKYWGQGTQVTVSS”, the “polyreactivity (PSR sort gate)” value is “low polyreactivity”.

With “QVQLVESGGGLVQAGGSLRLSCAASGFTFSSNAMGWSRPAPGKERELVAGITWSGGSTYYADSVKGRFTISRDNAKNTVYLQMNRLKPEDTAVYYCNFRYNASQYDYVYWGQGTQVTVSS”, the “polyreactivity (PSR sort gate)” value is recorded as “low polyreactivity”.

On to “QVQLVESGGGLLQAGGSLRLSCAASGITFYRNAMGWYRQAPGKERELVAAITWSGGSTYYADSVKGRFTISRDYAKNTVYLQMNSLKPEDSAVYYCNADYRHRYYWGQGTQVTVSS”, for which the “polyreactivity (PSR sort gate)” value is on record as “high polyreactivity”.

As for “QVQLVESGGGLVQAGGSLRLSCAASGFTFVVNAMAWYRQAPGKEREFVAAIRQSGGSTYYADSVKGRFTISRDNAKNTVYLQMNSLKPEDTAVYYCNAEDWGYGYDYWGQGTQVTVSS”, the “polyreactivity (PSR sort gate)” value is reported as “low polyreactivity”.

On to “QVQLVESGGGLFQAGGSLRLICAASGRIFDVNAMGWYRQAPRKEREMVAAISWSGGITYYADSVKGRFTISRDNAKNTVYLQMNSLKPEDTAVYYCAADKYQGYTFYQGYPGGGGYWGQGTQVTVSS”, for which the “polyreactivity (PSR sort gate)” value is listed as “low polyreactivity”.
